Here are results for three molecules from PMC5173319, “Crenactin forms actin-like double helical filaments regulated by arcadin-2” (eLife, 2016).

To fix the notation:
B1: Pyrobaculum calidifontis crenactin (natural protein, UniProt A3MWN5 1-432, looked up)
chain: MGVISDAYRLKYTFGVDFGTSYVKYGPITLNEPKMVQTRGLFLRDLPESVKMRIPPDVLARGLVVGDEEVRKYLSSVRDVQRNLKYPLKDGVARRDDEEAWRVLKELARYTLAQFPVSDPEFAGWLVAVALSALAPDYMYKAIFDIYDELASEFKIYAVTILPQPLAVAIAENAVNCVIVEGGHGNIQVAPISFALIREGLVALNRGGAEANAITREILKDIGYSDIAREEYAVEVVKRAVGLVPRRLKEAIRAAKSDPDRFVTKVRLSPVVEVEIPREYAWTRFLIGEIVFDPNHEEIKSYIEQSRLRIENAVIGDVTLYGEMDVASAIITSLRNVSVEIQERVASQIILSGGAFSWRVPPGMEDVAADSVTRVKIALEEKSPALASKVEVRLVSEPQYSVWRGAVIYGYALPLSLEWSDTTREGWRFPRR
notes: codon-optimised gene in pOPIN-S; Forms double-stranded helical filaments with ATP and MgCl2; The construct used for co-expression with arcadin-2 is not described; also called PCC; source: E. coli C41(DE3), purified (Ni-NTA, elution by SUMO tag cleavage with SENP1, Sephacryl S300); also co-expressed with arcadin-2 and purified as a complex; not shown: His6, N-terminal, cleaved; SUMO, N-terminal, …

Data set [1] concerns the molecule itself. In words: cryo-EM structure; crenactin 0.5-1 mg/ml in 50 mM NH4HCO3, 20 mM KCl, polymerised with 2 mM ATP and 4 mM MgCl2 for 30 min on ice; helical reconstruction in RELION 2.0.
Data set [2] deals with B1. The data set can be described thus: crystal structure; crenactin at 7 mg/ml mixed with arcadin-2 peptide at molar ratio 1 to 3; 0.31 M sodium acetate, 12.8% PEG 4000, 0.1 M sodium acetate pH 4.5; 1.6 Å. Particulars: both partners purified.
Data set [3] has as its target B1. The data set can be described thus: SPR; crenactin immobilised by amide coupling on CM5 chip (~700 RU), Biacore T200, PBS-0.005% Tween 20, 20°C; arcadin-2 or arcadin-2ΔC in 1:2 dilution series from 2 µM; kinetic fits, Kd = koff/kon. Particulars: both partners purified. In general terms: In SPR one partner is held on a chip, and binding of the other changes the refractive index at the surface.

In general, Kd refers to the concentration at which binding is half-saturated.

Take B1: the binding result in data set [1] is listed as “binds”.

B2: arcadin-2 C-terminal peptide (residues 187-203) (peptide, UniProt A3MWN6 187-203, looked up)
peptide: RGGIGENEWVKILRSKR
notes: arcadin-2, Pyrobaculum calidifontis, NCBI WP_011850311.1, residues R187 to R203 (the last 17 amino acids); also called arcadin-2 peptide; C-peptide; source: synthetic peptide (Generon, U.K)
As to B2, the binding result in data set [2] is listed as “binds”.

B3: Pyrobaculum calidifontis arcadin-2 (natural protein, UniProt A3MWN6 1-203, looked up)
chain: MDFPKVLLIRHFTEVLGMKYAGEGGEVLWFEEGLNRVAVGIYFTDLYEEAELYKRVGALMGLGASKVFLAVLPDALAFVDPRYFKANGVGLVVVDPAKGVDGVEVKIFARARPAAVEPLKIDAVKAALHEYLASELKRVEESLFEKVRRYVDQRVEEVKRALQAVEEAKRAAPPVQRAAAESAQEPRGGIGENEWVKILRSKR
notes: arcadin-2, Pyrobaculum calidifontis, NCBI WP_011850311.1; untagged, native protein from pHis17; The construct used for co-expression with crenactin is not described; also called full-length arcadin-2; source: E. coli C41(DE3), purified (heat step 60°C, ammonium sulphate precipitation, Sephacryl S300); also co-expressed with crenactin and purified as a complex
Consider B3, for which, in data set [3], the Kd amounted to 31 nM.
